Results reported in a protein production outcome set (Wang et al. 2014).

Assay: label from the status in PepcDB records

MRRCCGDLAASRGGCEPASRNLTRTRLTFAALGRINRPAEHDREDAMTRQEARDHEPRDQDAALSRRTLVRGLALGAAATMAGPALAQTGPAAPPTTITTPPRDFGPNGAPTTYFWDPDIIAVDPSFDDLAQPNTAIKRLYTGVLWAEGPAWSAQGRYLLWSDIPNNRQMRWSEDDGRISVFRSPSNNSNGNSFDFQGRQLSCEHLTRRVTRYEHDGTATVLCDNYNGKKLNSPNDVVAHPDGSYWFTDPPYGGQLYEGEPDAAGGPSNSGGKLNPRIGQPAGFTPGKRELPTNCYRIDPSGRVDLVVTEEQVPDPNGLCFSPDFKKLYVVSTGKGPGDSGPGGKGEIFVFDVGADNKLSNQKRFSDCTIDGVKCGPDGVRCDVNGNVWASSNAGRAVGYSGVTVWSPEGKLLGRIRLPEVCGNICFGGPKRNRLFMAASQSLYAVFTATQGAGPGLEHHHHHH
protein production: not failed

MMMLPEACVANILAFTSPADAFSSSEVSSVFRLAGDSDFVWEKFLPSHYKSLISQSTDHHRIFSSKKEIYRCLCDSLLIDNARKLFKINKFSGKISYILSARDISITYSDHASYCSWSNVSDSRFSESAELITTDRLEIKGKIQTTVLSPNTKYGAYLIMKVTNGAYGLDLVPAETSVKSKNGQNNKNTTYLCCLDEKKQQMKRLFYGNREERMAMTVEAVGGDGKRREPKARDDGWLEIELGEFVTREGEDDEVNMSLTEVKGYQLKGGIVIDGIEVRPIPLK
protein production: failed

MSPMAPVARAKRKFILLLIKPSHYDDDGYVLRWWRGIIPSNSLATLYGIAADVAARQVLGADVEFEIEAMDEFNTRIDIPALLDRFARNGNFGLVGLVGVQSNQYPRALDIARPFRASGVPVVMGGFHVSGCLAMLDGKAIGLDDCRDMGVAMFAGEAEGGRFDGVLQDAAAGQLQPVYNFLNDLPGIEGVPAPYLPLATVKRTLGLSTSVDAGRGCPYQCSFCTIINVQGRKSRYRTPDDIEAMVRRNWAQGISKYFITDDNFARNKDWEAILDRLIQIRETEDIPLGFMIQVDTLCHKIPRFIEKAKRAGVTRVFIGLENINPANLLTANKRQNKITEYRAMLLAWKDHGIITLAGYILGFPADTPASIRADIDIIKRELPIDVMEFFCLTPLPGSEDHQTLWRAGVAMDPDLNNYDVEHVCTAHPLMSRPEWEAIYREAWSRYYTPDHIETLLRRAAATGIKISSLVKLLAIFSTAIRVENVHPLQCGLFRQRHPSERRPGLAAPNALLFWPRFALDSVRKTGVILAAFAKVAAIGVRVARDPQRLAYTDQALTPVSDDDADSLDLFTQSASAKQAVAHQKKVFDLTHGTP
protein production: failed

MLEEYEKKRDFNKTSEPPARGEEKNSDKPVFVVQRHDATNLHYDFRLEMDGVLKSWAVPKEPPKSPGTRRLAIETEDHPLGYADFEGEIPEGQYGAGRVEIWDRGTFELLKRNEKEIIITLHGEELEGDYVLIKTKYGKEDKGWLFFKKKTGLEHHHHHH
protein production: not failed

MKTRSSDAEGDSRGKMIAPVGEGNGGRKRKLVQSNEQKNDIQREEDGRAKRRIVQSSDQKNGKILRGIRGCVSPRCSAQTYQSRFSWYEQDIWTYISRFLDGKSLVKLGATNKWFYKIAMEDTVWRFACLRDLQVPVPFPVSSTWIKIYASAFDGSHSYLFRQKEKHIGAFVLDSRTSLLTESLSGRLKFPREGTIERMLQSSGSCLINDIKSGIWIADLQLVRCPVCDLSTCDGTMQTLDARHIELFLSEGYKDGSWDYNLIGSHKLQKNASAACGAIFDLKHLKESSYSGILNLKSWTGESNDSQPKAVIAPHAVAVHTRLQENEGILVKYHTMKAGTDGDIVSIRISQQLL
protein production: failed

MRINTRRKKWAAVAVVTLVSVIASVIVTVIVVGTLDPQSLRPAIIVPLLVAPLATHWGAERLLEIDKLNQQLAHLNRIDQMTQLYNRACLLEKLEQEPEEAGMILIADIDHFKQINDTYGHDVGDLVIIEVARVLQRSSLPEGIAARFGGEEFVIYVPRLDLEAAEFRAEAIRQAVEAQSVMIDGRKLSCTISIGIEIRQMQENVGDVLKRADEALYRAKAQGRNQVVAARRLARAGKSRETAQARRAP
protein production: failed

METPNSTGGTPPTMRVSVVLCTHTMERYDDCRAAAESVLAQTYDDVELVLVSDGNRDVYKQYQSDFGNRDDVLTHCNDANVGLLESRNNGAEVATGDVVAFIDDDAIADEEWVAALVDAYEQQDALAVGGRMTPAWVAGKPSFLPAEFYWLIGVTHRGFGPNGDPDEPGVVRNTFGSNISFDRDVFLELGGFDDDIGGRQGEKNLQGGETELCARLRTEYDEGVYYTPEALVAHKIFDYRTDPGWLLDRAFWQGYSKRGMEVFVPESTGEESDFLSDLLFRFAPERIWGLVRAPSVAGVLQFVFLFALTAFVGFGYLYGMTVWG
protein production: failed
